One assay deals with T1, human glucagon receptor (human, UniProt P47871 26-477).
T1 construct: whole, on cells; also called hGCGR; hGcgR
The assay can be described thus: SPA competition vs [125I]-Gcg, hGcgR membranes. As for the experimental part: The binding buffer contains 25 mM 4-(2-hydroxyethyl)-1-piperazineethanesulfonic acid (HEPES), pH 7.4, 2.5 mM CaCl₂, 1 mM MgCh, 0.1% (w/v) bacitracin (Research Products), 0.003% (w/v) Polyoxyethylenesorbitan monolaurate (TWEEN®-20), and Roche Complete™ Protease Inhibitors without EDTA. […] Plates are sealed and mixed on a plate shaker (setting 6) for 1 minute and read with a PerkinElmer Trilux MicroBeta® scintillation counter after 12 hours of incubation/settling time at room temperature.
Data are analyzed using four-parameter (curve maximum, curve minimum, IC₅₀, Hill slope) nonlinear regression routines (Genedata Screener, version 12.0.4, Genedata AG, Basal, Switzerland). […] Values for Kᵢ are reported as the geometric mean, with error expressed as the standard error of the mean (SEM) and n is equal to the number of independent replicates (determined in assays performed on different days).

In a further assay the target is T2, human GLP-1 receptor (human, UniProt P43220 24-463).
T2 construct: whole, on cells; also called hGLP-1R; human glucagon-like peptide-1 receptor
Description: SPA competition vs [125I]-GLP-1, hGLP-1R membranes. A digest of the protocol: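 Competition binding in 25 mM HEPES pH 7.4, 2.5 mM CaCl₂, 1 mM MgCl₂, 0.1% bacitracin, 0.003% TWEEN-20, EDTA-free protease inhibitors. IC₅₀ from four-parameter nonlinear fit; Kᵢ given as geometric mean ± SEM, n = independent replicates on different days.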

The target of another assay is T3, human GIP receptor (human, UniProt P48546 22-466).
T3 construct: whole, on cells; also called hGIPR; human glucose-dependent insulinotropic polypeptide receptor
T3 sequence (looked up): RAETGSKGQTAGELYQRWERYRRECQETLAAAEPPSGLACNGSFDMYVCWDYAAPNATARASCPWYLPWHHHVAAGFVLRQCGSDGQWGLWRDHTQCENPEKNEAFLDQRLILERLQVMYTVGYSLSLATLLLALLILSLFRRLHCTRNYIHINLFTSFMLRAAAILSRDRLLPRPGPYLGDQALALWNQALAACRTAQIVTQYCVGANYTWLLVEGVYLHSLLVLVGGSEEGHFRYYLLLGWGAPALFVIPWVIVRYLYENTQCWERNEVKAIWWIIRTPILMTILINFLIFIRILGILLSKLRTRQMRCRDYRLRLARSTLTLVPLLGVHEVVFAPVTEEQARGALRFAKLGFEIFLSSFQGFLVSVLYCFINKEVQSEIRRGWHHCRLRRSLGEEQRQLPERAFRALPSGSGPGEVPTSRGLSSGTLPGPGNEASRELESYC
The assay can be described thus: SPA competition vs [125I]-GIP, hGIPR membranes.

A word on the Ki: it is a dissociation constant, usually derived from enzyme kinetics or from competition with a known ligand. A lower Ki goes with tighter binding.

T1 sequence (P47871 26-477): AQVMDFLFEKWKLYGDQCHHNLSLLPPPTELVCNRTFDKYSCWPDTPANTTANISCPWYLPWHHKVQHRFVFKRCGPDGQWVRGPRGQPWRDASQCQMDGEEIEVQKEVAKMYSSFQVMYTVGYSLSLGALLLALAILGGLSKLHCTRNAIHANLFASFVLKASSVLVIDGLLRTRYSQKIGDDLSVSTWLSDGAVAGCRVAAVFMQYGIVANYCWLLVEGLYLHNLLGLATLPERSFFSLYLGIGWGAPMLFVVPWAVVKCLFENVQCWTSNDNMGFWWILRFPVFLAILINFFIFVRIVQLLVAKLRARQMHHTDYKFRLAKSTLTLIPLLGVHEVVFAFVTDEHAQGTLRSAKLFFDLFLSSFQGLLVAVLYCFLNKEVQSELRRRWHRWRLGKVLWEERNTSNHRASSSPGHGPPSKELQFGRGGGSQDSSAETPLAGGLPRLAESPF

B1: Y-Aib-EGT-αMeF(2F)-TSDY-aMeS-I-αMeL-LD-Orn-K((2-[2-(2-Amino-ethoxy)-ethoxy]-acetyl)2-(γ-Glu)-CO-(CH2)12-CO2H)AQ-Aib-EFI-(D-Glu)-αMeY-LIEGGK((2-[2-(2-Amino-ethox … (peptide)
peptide: YXEGTXTSDYXIXLDXKAQXEFIXXLIEGGKSSGAPPPS
modifications: Aib2, αMeF(2F)6, αMeS11, αMeL13, Orn16, K17(Z1), Aib20, D-Glu24, αMeY25, K31(Z1), C-term NH2; Z1=AEEA2-(γ-Glu)-CO-(CH2)12-CO2H
Consider B1, for which the Ki with human glucagon receptor was 196 nM; in the assay with human GLP-1 receptor, 1.21 nM; with human GIP receptor it was 0.0573 nM.

B2: Y-Aib-EGT-αMeF(2F)-TSD-4Pal-SI-αMeL-LD-Orn-K((2-[2-(2-Amino-ethoxy)-ethoxy]-acetyl)2-(γ-Glu)-CO-(CH2)12-CO2H)AQ-Aib-EFIK((2-[2-(2-Amino-ethoxy)-ethoxy]-acetyl)2 … (peptide)
peptide: YXEGTXTSDXSIXLDXKAQXEFIKXLIEGGPSSGAPPPS
modifications: Aib2, αMeF(2F)6, 4Pal10, αMeL13, Orn16, K17(Z1), Aib20, K24(Z1), αMeY25, C-term NH2; Z1=AEEA2-(γ-Glu)-CO-(CH2)12-CO2H
For the molecule B2, the Ki with human glucagon receptor worked out at 707 nM; with human GLP-1 receptor, 1.4 nM; with human GIP receptor, 0.054 nM.

B3: Y-Aib-EGT-αMeF(2F)-TSD-Ac5c-SI-αMeL-LD-Orn-K((2-[2-(2-Amino-ethoxy)-ethoxy]-acetyl)2-(γ-Glu)-CO-(CH2)12-CO2H)AQ-Aib-EFI-(D-Glu)-αMeY-LIEGGK((2-[2-(2-Amino-ethox … (peptide)
peptide: YXEGTXTSDXSIXLDXKAQXEFIXXLIEGGKSSGAPPPS
modifications: Aib2, αMeF(2F)6, Ac5c10, αMeL13, Orn16, K17(Z1), Aib20, D-Glu24, αMeY25, K31(Z1), C-term NH2; Z1=AEEA2-(γ-Glu)-CO-(CH2)12-CO2H
In the case of B3, the inhibition constant (Ki) in the assay with human glucagon receptor amounted to 274 nM; with human GLP-1 receptor it was 1.46 nM; with human GIP receptor it was 0.085 nM.

B4: Y-Aib-EGT-αMeF(2F)-TSD-αMeL-SI-aMeL-LD-Orn-K((2-[2-(2-Amino-ethoxy)-ethoxy]-acetyl)2-(γ-Glu)-CO-(CH2)12-CO2H)AQ-Aib-EFI-(D-Glu)-αMeY-LIEGGK((2-[2-(2-Amino-ethox … (peptide)
peptide: YXEGTXTSDXSIXLDXKAQXEFIXXLIEGGKSSGAPPPS
modifications: Aib2, αMeF(2F)6, αMeL10, αMeL13, Orn16, K17(Z1), Aib20, D-Glu24, αMeY25, K31(Z1), C-term NH2; Z1=AEEA2-(γ-Glu)-CO-(CH2)12-CO2H
Regarding B4, the values for the Ki in the assay with human glucagon receptor, in the assay with human GLP-1 receptor and with human GIP receptor were 51.7 nM, 1.64 nM and 0.0741 nM, respectively.

B5: Y-Aib-EGT-αMeF(2F)-TSD-2Nal-SI-αMeL-LD-Orn-K((2-[2-(2-Amino-ethoxy)-ethoxy]-acetyl)2-(γ-Glu)-CO-(CH2)12-CO2H)AQ-Aib-EFI-(D-Glu)-αMeY-LIEGGK((2-[2-(2-Amino-ethox … (peptide)
peptide: YXEGTXTSDXSIXLDXKAQXEFIXXLIEGGKSSGAPPPS
modifications: Aib2, αMeF(2F)6, 2Nal10, αMeL13, Orn16, K17(Z1), Aib20, D-Glu24, αMeY25, K31(Z1), C-term NH2; Z1=AEEA2-(γ-Glu)-CO-(CH2)12-CO2H
Turning to B5, the Ki with human glucagon receptor came out at 114 nM; with human GLP-1 receptor, 4.35 nM; with human GIP receptor, 0.297 nM.

B6: Y-Aib-EGT-αMeF(2F)-TSD-hTyr-SI-αMeL-LD-Orn-K((2-[2-(2-Amino-ethoxy)-ethoxy]-acetyl)2-(γ-Glu)-CO-(CH2)12-CO2H)AQ-Aib-EFI-(D-Glu)-αMeY-LIEGGK((2-[2-(2-Amino-ethox … (peptide)
peptide: YXEGTXTSDXSIXLDXKAQXEFIXXLIEGGKSSGAPPPS
modifications: Aib2, αMeF(2F)6, hTyr10, αMeL13, Orn16, K17(Z1), Aib20, D-Glu24, αMeY25, K31(Z1), C-term NH2; Z1=AEEA2-(γ-Glu)-CO-(CH2)12-CO2H
In the case of B6, the Ki with human glucagon receptor was determined as 2000 nM; with human GLP-1 receptor, 0.789 nM; in the assay with human GIP receptor it was 0.171 nM.

B7: Y-Aib-EGT-αMeF(2F)-TSD-4Pal-SI-αMeL-LD-Orn-K((2-[2-(2-Amino-ethoxy)-ethoxy]-acetyl)2-(γ-Glu)-CO-(CH2)10-CH3)AQ-Aib-K((2-[2-(2-Amino-ethoxy)-ethoxy]-acetyl)2-(γ- … (peptide)
peptide: YXEGTXTSDXSIXLDXKAQXKFIXXLIXGGPSSGAPPPS
modifications: Aib2, αMeF(2F)6, 4Pal10, αMeL13, Orn16, K17(Z1), Aib20, K21(Z1), D-Glu24, αMeY25, Orn28, C-term NH2; Z1=AEEA2-(γ-Glu)-CO-(CH2)10-CH3
Consider B7, for which the figures for the Ki with human glucagon receptor, with human GLP-1 receptor and in the assay with human GIP receptor were 14.3 nM, 0.119 nM and 0.0131 nM, respectively.

B8: Y-Aib-EGT-αMeF(2F)-TSD-1Nal-SI-αMeL-LD-Orn-K((2-[2-(2-Amino-ethoxy)-ethoxy]-acetyl)2-(γ-Glu)-CO-(CH2)12-CO2H)AQ-Aib-EFI-(D-Glu)-αMeY-LIEGGK((2-[2-(2-Amino-ethox … (peptide)
peptide: YXEGTXTSDXSIXLDXKAQXEFIXXLIEGGKSSGAPPPS
modifications: Aib2, αMeF(2F)6, 1Nal10, αMeL13, Orn16, K17(Z1), Aib20, D-Glu24, αMeY25, K31(Z1), C-term NH2; Z1=AEEA2-(γ-Glu)-CO-(CH2)12-CO2H
In the case of B8, the Ki with human glucagon receptor was found to be 137 nM; with human GLP-1 receptor, 2.85 nM; with human GIP receptor, 0.152 nM.

B9: Y-Aib-EGT-αMeF(2F)-TSD-4Pal-SI-αMeL-LD-Orn-K((2-[2-(2-Amino-ethoxy)-ethoxy]-acetyl)2-(γ-Glu)-(4-(4-iodophenyl)butanoyl))AQ-Aib-EFI-(D-Glu)-αMeY-LIEGGK((2-[2-(2- … (peptide)
peptide: YXEGTXTSDXSIXLDXKAQXEFIXXLIEGGKSSGAPPPS
modifications: Aib2, αMeF(2F)6, 4Pal10, αMeL13, Orn16, K17(Z1), Aib20, D-Glu24, αMeY25, K31(Z1), C-term NH2; Z1=AEEA2-(γ-Glu)-(4-(4-iodophenyl)butanoyl)
On to B9, for which the figures for the Ki with human glucagon receptor, with human GLP-1 receptor and with human GIP receptor were 711 nM, 0.471 nM and 0.0629 nM, respectively.

B10: Y-Aib-EGT-αMeF(2F)-TSD-4Pal-SI-αMeL-LD-Orn-K((2-[2-(2-Amino-ethoxy)-ethoxy]-acetyl)2-(γ-Glu)-CO-(CH2)12-CO2H)AQ-Aib-E-1Nal-I-(D-Glu)-αMeY-LIEGGK((2-[2-(2-Amino- … (peptide)
peptide: YXEGTXTSDXSIXLDXKAQXEXIXXLIEGGKSSGAPPPS
modifications: Aib2, αMeF(2F)6, 4Pal10, αMeL13, Orn16, K17(Z1), Aib20, 1Nal22, D-Glu24, αMeY25, K31(Z1), C-term NH2; Z1=AEEA2-(γ-Glu)-CO-(CH2)12-CO2H
In the case of B10, the results for the Ki with human glucagon receptor, in the assay with human GLP-1 receptor and with human GIP receptor were 4150 nM, 1.55 nM and 0.263 nM, respectively.

B11: Y-Aib-EGT-αMeF(2F)-TSD-4Pal-SI-αMeL-LD-Orn-K((2-[2-(2-Amino-ethoxy)-ethoxy]-acetyl)2-(γ-Glu)-CO-(CH2)10-CH3)AQ-Aib-Orn-FI-(D-Glu)-αMeY-LIK((2-[2-(2-Amino-ethoxy … (peptide)
peptide: YXEGTXTSDXSIXLDXKAQXXFIXXLIKGGPSSGAPPPS
modifications: Aib2, αMeF(2F)6, 4Pal10, αMeL13, Orn16, K17(Z1), Aib20, Orn21, D-Glu24, αMeY25, K28(Z1), C-term NH2; Z1=AEEA2-(γ-Glu)-CO-(CH2)10-CH3
As for B11, the Ki was determined as 93.3 nM with human glucagon receptor, 0.101 nM with human GLP-1 receptor and 0.0215 nM with human GIP receptor.

B12: Y-Aib-EGT-αMeF(2F)-TSDK((2-[2-(2-Amino-ethoxy)-ethoxy]-acetyl)2-(γ-Glu)-CO-(CH2)10-CH3)-Aib-I-αMeL-LD-Orn-K((2-[2-(2-Amino-ethoxy)-ethoxy]-acetyl)2-(γ-Glu)-CO-( … (peptide)
peptide: YXEGTXTSDKXIXLDXKAQXEFIXXLIEGGPSSGAPPPS
modifications: Aib2, αMeF(2F)6, K10(Z1), Aib11, αMeL13, Orn16, K17(Z1), Aib20, D-Glu24, αMeY25, C-term NH2; Z1=AEEA2-(γ-Glu)-CO-(CH2)10-CH3
For B12, the Ki amounted to 132 nM with human glucagon receptor, 0.289 nM with human GLP-1 receptor and 0.0161 nM with human GIP receptor.

B13: Y-Aib-EGT-αMeF(2F)-TSD-4Pal-SI-αMeL-LD-Orn-IAQ-Aib-EFIK((2-[2-(2-Amino-ethoxy)-ethoxy]-acetyl)2-(γ-Glu)-CO-(CH2)12-CO2H)-αMeY-LIK((2-[2-(2-Amino-ethoxy)-ethoxy] … (peptide)
peptide: YXEGTXTSDXSIXLDXIAQXEFIKXLIKGGPSSGAPPPS
modifications: Aib2, αMeF(2F)6, 4Pal10, αMeL13, Orn16, Aib20, K24(Z1), αMeY25, K28(Z1), C-term NH2; Z1=AEEA2-(γ-Glu)-CO-(CH2)12-CO2H
For the molecule B13, the Ki was found to be 151 nM with human glucagon receptor, 1.67 nM with human GLP-1 receptor and 0.12 nM with human GIP receptor.

B14: Y-Aib-EGT-αMeF(2F)-TSDK((2-[2-(2-Amino-ethoxy)-ethoxy]-acetyl)3-(γ-Glu)-CO-(CH2)10-CH3)-Aib-I-αMeL-LD-Orn-K((2-[2-(2-Amino-ethoxy)-ethoxy]-acetyl)3-(γ-Glu)-CO-( … (peptide)
peptide: YXEGTXTSDKXIXLDXKAQXEFIXXLIEGGPSSGAPPPS
modifications: Aib2, αMeF(2F)6, K10(Z1), Aib11, αMeL13, Orn16, K17(Z1), Aib20, D-Glu24, αMeY25, C-term NH2; Z1=AEEA3-(γ-Glu)-CO-(CH2)10-CH3
Regarding B14, the Ki with human glucagon receptor came out at 345 nM; with human GLP-1 receptor, 0.198 nM; with human GIP receptor it was 0.0245 nM.

Values taken from US20230265151A1, “GIP/GLP1 CO-AGONIST COMPOUNDS” (priority 2020, published 2023).
